# Laboratory results reported in the supplement of paper PMC9112550, “Optimization of the antimicrobial peptide Bac7 by deep mutational scanning” (BMC Biology, 2022).
# Tested on: Escherichia coli TOP10
# Test: shrunken log2 fold change of peptide-encoding DNA abundance (4.5 h post-induction vs induction); higher = less antimicrobial activity (less host growth inhibition)
# Settings: time post-induction: 4.5 h; library: site-saturation at positions 5, 18, 19, 20
# 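Further: peptides expressed intracellularly from a pBAD plasmid library in pooled LB shake-flask culture, induced with 0.3% L-arabinose, DNA abundance read by NGS, three biological replicates, DESeq2 with apeglm shrinkage.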
row,Sequence,shrunken log2 fold change
1,RRIRSRPPRLPRPRPRPYNAPRP,-0.254
2,RRIRDRPPRLPRPRPRPHVSPRP,0.27
3,RRIRVRPPRLPRPRPRPCTMPRP,-0.193
4,RRIRARPPRLPRPRPRPDDKPRP,-0.112
5,RRIRLRPPRLPRPRPRPQGKPRP,0.0467
6,RRIRGRPPRLPRPRPRPWFNPRP,-0.18
7,RRIRWRPPRLPRPRPRPGWYPRP,-0.0191
8,RRIRVRPPRLPRPRPRPEPRPRP,0.708
9,RRIRVRPPRLPRPRPRPNAIPRP,0.0894
10,RRIRHRPPRLPRPRPRPLLVPRP,-0.167
11,RRIRIRPPRLPRPRPRPPSQPRP,0.258
12,RRIRVRPPRLPRPRPRPQRDPRP,-0.171
13,RRIRQRPPRLPRPRPRPGGEPRP,0.218
14,RRIRSRPPRLPRPRPRPDNEPRP,-0.0519
15,RRIRVRPPRLPRPRPRPLQQPRP,-0.55
16,RRIRGRPPRLPRPRPRPQDYPRP,-0.0805
17,RRIRSRPPRLPRPRPRPHEDPRP,0.132
18,RRIRMRPPRLPRPRPRPYFWPRP,-0.13
19,RRIRERPPRLPRPRPRPVSPPRP,-0.33
20,RRIRPRPPRLPRPRPRPGAKPRP,0.265
21,RRIRQRPPRLPRPRPRPIEDPRP,-0.126
22,RRIRTRPPRLPRPRPRPWCEPRP,0.0211

row,Sequence,shrunken log2 fold change
1,RRIRARPPRLPRPRPRPEARPRP,1.42
2,RRIRWRPPRLPRPRPRPFWTPRP,0.0519
3,RRIRTRPPRLPRPRPRPLVQPRP,0.149
4,RRIRPRPPRLPRPRPRPTCRPRP,0.418
5,RRIRNRPPRLPRPRPRPLYCPRP,-0.793
6,RRIRQRPPRLPRPRPRPNLGPRP,0.0673
7,RRIRIRPPRLPRPRPRPFMYPRP,-1.36
8,RRIRRRPPRLPRPRPRPHQYPRP,2.56
9,RRIRLRPPRLPRPRPRPHAFPRP,-0.208
10,RRIRKRPPRLPRPRPRPEWAPRP,0.604
11,RRIRLRPPRLPRPRPRPHTFPRP,-0.0496
12,RRIRIRPPRLPRPRPRPMYVPRP,0.00823
13,RRIRHRPPRLPRPRPRPIAHPRP,0.0481
14,RRIRPRPPRLPRPRPRPVSKPRP,-0.166
15,RRIRLRPPRLPRPRPRPTRRPRP,0.298
16,RRIRFRPPRLPRPRPRPIHYPRP,-1.14
17,RRIRTRPPRLPRPRPRPTTIPRP,-0.111
18,RRIRYRPPRLPRPRPRPFRYPRP,-0.315
19,RRIRLRPPRLPRPRPRPSWKPRP,0.132
20,RRIRQRPPRLPRPRPRPEFMPRP,-0.0743
21,RRIRRRPPRLPRPRPRPGACPRP,0.475
22,RRIRIRPPRLPRPRPRPTWIPRP,-0.415

row,Sequence,shrunken log2 fold change
1,RRIRPRPPRLPRPRPRPAYFPRP,-0.16
2,RRIRSRPPRLPRPRPRPGARPRP,0.492
3,RRIRYRPPRLPRPRPRPTWMPRP,0.0576
4,RRIRGRPPRLPRPRPRPHHEPRP,0.325
5,RRIRLRPPRLPRPRPRPGQKPRP,-0.00989
6,RRIRRRPPRLPRPRPRPGNVPRP,0.418
7,RRIRDRPPRLPRPRPRPMRMPRP,0.199
8,RRIRERPPRLPRPRPRPANCPRP,-0.65
9,RRIRYRPPRLPRPRPRPIKYPRP,-0.0893
10,RRIRPRPPRLPRPRPRPVSNPRP,-0.622
11,RRIRGRPPRLPRPRPRPFVFPRP,0.608
12,RRIRSRPPRLPRPRPRPTVEPRP,0.119
13,RRIRDRPPRLPRPRPRPKIEPRP,-0.305
14,RRIRNRPPRLPRPRPRPSQHPRP,-0.0437
15,RRIRSRPPRLPRPRPRPNMKPRP,-0.436
16,RRIRKRPPRLPRPRPRPMAAPRP,0.751
17,RRIRWRPPRLPRPRPRPVTEPRP,0.361
18,RRIRNRPPRLPRPRPRPFNDPRP,-0.0288
19,RRIRFRPPRLPRPRPRPCTSPRP,-0.0377
20,RRIRHRPPRLPRPRPRPPRKPRP,-0.0559
21,RRIRCRPPRLPRPRPRPNNEPRP,-0.529
22,RRIRERPPRLPRPRPRPRRNPRP,-0.0448

row,Sequence,shrunken log2 fold change
1,RRIRFRPPRLPRPRPRPKNKPRP,-0.384
2,RRIRRRPPRLPRPRPRPGSYPRP,-0.0811
3,RRIRLRPPRLPRPRPRPARYPRP,-0.0839
4,RRIRQRPPRLPRPRPRPHPMPRP,-0.185
5,RRIRIRPPRLPRPRPRPWPAPRP,-0.768
6,RRIRPRPPRLPRPRPRPFSWPRP,-0.0698
7,RRIRNRPPRLPRPRPRPVMGPRP,0.147
8,RRIRLRPPRLPRPRPRPNHHPRP,-0.0905
9,RRIRIRPPRLPRPRPRPHYEPRP,-0.618
10,RRIRGRPPRLPRPRPRPCCFPRP,0.773
11,RRIRFRPPRLPRPRPRPDAAPRP,0.681
12,RRIRSRPPRLPRPRPRPMPHPRP,0.00101
13,RRIRKRPPRLPRPRPRPFWMPRP,0.0752
14,RRIRFRPPRLPRPRPRPSWYPRP,-0.401
15,RRIRIRPPRLPRPRPRPRHMPRP,-0.12
16,RRIRLRPPRLPRPRPRPCKDPRP,-0.194
17,RRIRMRPPRLPRPRPRPKRLPRP,0.0697
18,RRIRDRPPRLPRPRPRPICAPRP,0.172
19,RRIRGRPPRLPRPRPRPFTIPRP,-0.0307
20,RRIRFRPPRLPRPRPRPPPYPRP,0.445
21,RRIRERPPRLPRPRPRPACPPRP,-0.0623
22,RRIRDRPPRLPRPRPRPDPSPRP,-0.0385

row,Sequence,shrunken log2 fold change
1,RRIRSRPPRLPRPRPRPQTKPRP,-0.0915
2,RRIRTRPPRLPRPRPRPGFCPRP,0.106
3,RRIRPRPPRLPRPRPRPQEQPRP,-0.0215
4,RRIRNRPPRLPRPRPRPPLHPRP,0.0562
5,RRIRTRPPRLPRPRPRPGLRPRP,0.598
6,RRIRSRPPRLPRPRPRPYVKPRP,-0.351
7,RRIRIRPPRLPRPRPRPYHAPRP,-0.0781
8,RRIRMRPPRLPRPRPRPDPAPRP,1.13
9,RRIRQRPPRLPRPRPRPKCWPRP,0.621
10,RRIRWRPPRLPRPRPRPFTSPRP,-0.0735
11,RRIRPRPPRLPRPRPRPKSIPRP,-0.352
12,RRIRWRPPRLPRPRPRPDFHPRP,-0.239
13,RRIRYRPPRLPRPRPRPHPLPRP,-0.719
14,RRIRIRPPRLPRPRPRPWMIPRP,-0.0493
15,RRIRCRPPRLPRPRPRPVSGPRP,0.357
16,RRIRPRPPRLPRPRPRPEMKPRP,-0.0423
17,RRIRPRPPRLPRPRPRPKVKPRP,-0.236
18,RRIRKRPPRLPRPRPRPIFFPRP,0.414
19,RRIRHRPPRLPRPRPRPPPPPRP,1.05
20,RRIRYRPPRLPRPRPRPRLRPRP,0.0744
21,RRIRVRPPRLPRPRPRPNKNPRP,0.0192
